Source: US5968751A, “Method for detecting the presence of protein C antibody in a fluid sample” (The Scripps Research Institute, priority 1997, dated 1999)
No end group written: not given here.

Tests used:
APC [1] = target: T1, APC (Homo sapiens, UniProt P04070); parameters: Protein C consists of a 155 amino acid residue light chain and a 262 amino acid residue heavy chain; from tissue; alpha1-AT mutant from Transgene, Strasbourg; settings: Heeb et al. 1990; cited from earlier work
Target sequence in this assay (P04070 43-197): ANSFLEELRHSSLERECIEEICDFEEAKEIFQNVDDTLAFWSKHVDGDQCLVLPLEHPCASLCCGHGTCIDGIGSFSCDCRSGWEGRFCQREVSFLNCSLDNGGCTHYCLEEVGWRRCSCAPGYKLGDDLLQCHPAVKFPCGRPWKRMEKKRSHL
Target sequence in this assay (P04070 212-461): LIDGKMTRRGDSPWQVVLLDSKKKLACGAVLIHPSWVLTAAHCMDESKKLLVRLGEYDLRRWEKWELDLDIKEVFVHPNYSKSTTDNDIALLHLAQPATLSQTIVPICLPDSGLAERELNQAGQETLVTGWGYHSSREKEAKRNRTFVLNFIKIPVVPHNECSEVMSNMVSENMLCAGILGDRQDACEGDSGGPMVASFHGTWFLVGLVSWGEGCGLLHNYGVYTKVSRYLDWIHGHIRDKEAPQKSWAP

APC [2] = target: T1, APC; experiment: Xa-1-stage coagulation assay, inhibition of APC anticoagulant activity; assay type: biochemical; parameters: Protein C consists of a 155 amino acid residue light chain and a 262 amino acid residue heavy chain; from tissue; host or cells: human plasma factor IX concentrate; settings: final peptide concentration 500 μM; NHP; 0 = no observable effect +10%
Protocol: For testing the inhibition of the synthetic peptides on APC activity described above, Xa-1-stage coagulation assays were also performed as described. See Seegers et al., Thrombosis Res., 13:233-243 (1978); Marlar et al., supra; and Walker et al., J. Biol. Chem., 265:1484-1489 (1990). PC heavy chain-derived peptides listed below in Table 6 and PC light chain-derived peptides listed below in Table 7 were prepared as described above and separately admixed for a final concentration of 2 mM with 120 nM APC in 100 μl of TBS-BSA at pH 7.4 to form separate peptide-APC admixtures. The resulting admixtures were maintained for ten minutes at 37° C. Separate aliquots of peptides maintained under the same conditions in the absence of APC served as controls for the inhibitory effect of synthetic peptides on APC anticoagulant activity. After the maintenance period, 100 μl of NHP and 100 μl of 200 μg/ml of rabbit brain cephalin (Sigma) were admixed into each peptide admixture and maintained for 200 seconds at 37° C. to form pre-coagulation admixtures. In some experiments, Factor VIII deficient plasma (George King Bio-Medical, Inc.) was used in the place of NHP to determine the effect of Factor VIII on the assay system. Coagulation was then initiated by the admixture of 100 μl of 0.62 nM human activated Factor X (Xa) (Enzyme Research Laboratories, Southbend, Ind.) in TBS-BSA containing 30 mM CaCl2 prewarmed to 37° C. to each of the pre-coagulation admixtures.
The time for clot formation was measured by an Electra 700 Automatic Coagulation Timer (Medical Laboratory Automation, Inc., Mount Vernon, N.Y.). Each peptide's effect was determined in duplicate. The results of the inhibition of APC anticoagulant activity by synthetic peptides as measured in Xa-1-stage coagulation assays are presented in Tables 6 and 7 below with the APTT assay results and are presented as the mean values obtained with APTT assays. Data for results with PC heavy chain-derived peptides are shown in Table 6 and data for results with PC light chain-derived peptides are shown in Table 7.
The results of inhibition of APC anticoagulant activity by PC light chain-derived peptides in a Xa-1 stage coagulation assay are shown in Table 7. The assay was performed in the presence of NHP. Peptides used in the assay were prepared as described in Example 1 and are listed in Table 7 by their corresponding residue positions in native PC protein (SEQ ID NO 1). For all peptides except PC142-155 used in the Xa-1 stage assays listed in Table 7, cysteine residues in the native PC amino acid residue sequence were substituted by either serine or glycine in the synthesized peptide. This was done to prevent multiple disulfide formation and subsequent potential polymerization among peptides with multiple cysteines. […]
Target sequence in this assay (P04070 43-197 limits assumed): as the sequence (P04070 43-197) above
Target sequence in this assay (P04070 212-450 limits assumed): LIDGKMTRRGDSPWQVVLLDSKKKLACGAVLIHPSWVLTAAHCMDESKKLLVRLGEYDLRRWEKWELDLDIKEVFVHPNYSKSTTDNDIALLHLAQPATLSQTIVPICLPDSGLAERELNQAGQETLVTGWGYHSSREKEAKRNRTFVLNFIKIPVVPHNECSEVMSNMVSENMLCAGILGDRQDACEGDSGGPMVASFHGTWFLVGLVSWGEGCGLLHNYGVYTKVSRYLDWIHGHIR

| Substance | increase in the association rate for APC by substitution of Met358 by Arg (APC [1]) | inhibition at 500 µM (APC [2]) |
| --- | --- | --- |
| α1 -AT: recombinant mutant (Arg358)-α1-antitrypsin, macromolecular pseudo-substrate inhibitor of APC (Transgene) | over 4400 fold |  |
| HPAVKFPSGRPWKRM-NH2 (C-terminus assumed) [PC134-148] |  | 66% |
